Source: publication PMC3145769, “Cyclin A2 Mutagenesis Analysis: A New Insight into CDK Activation and Cellular Localization Requirements” (PLoS ONE, 2011)

B1: CDK1 (endogenous, NIH3T3) (enzyme)
chain: not shown
notes: CDK1, endogenous protein of mouse NIH3T3 cells, detected by Western blot; source: endogenous, NIH3T3 cell extract
B2: p107 (endogenous, NIH3T3) (natural protein, mouse (endogenous in NIH3T3), UniProt Q64701 1-1063, looked up)
chain: MFEDEPHAEGAAAVAAAREALQALCQELNLDEGSAAEALDDFTAIRGNYSLEGEVIHWLACSLYVACRKSIIPTVGKGVMEGNCVSLTRILRSAKLSLIQFFSKMKKWMDMSNLPQEFRERIERLERNFEVSTVIFKKFEPIFLDIFQNPYEEPPKLPRSRKQRRIPCSVKDLFNFCWTLFVYTKGNFRMIGDDLVNSYHLLLCCLDLIFANAIMCPNRRDLLNPSFKGLPSDFHAPDFKAAEEPPCIIAVLCDLHDGLLVEAKGIKEHYFKPYISKLFDKKILKGECLLDLSSFTDNSKAVNKEYEEYVLTVGDFDERIFLGADAEEEIGTPRKFTADTPFGKLTSQASVECNLQQHFEKKRSFAPSTPLTGRRYLQEKEAVTTPVASATQSVSRLQSIVAGLKSAPSEQLLNIFESCMRNPMGNIIKIVKGIGETFCQHYTQSTDKQPGSHIDFAVNRLKLAEILYYKILETIMVQETRRLHGMDMSVLLEQDIFHKSLMACCLEIVLFAYSSPRTFPWIIEVLDLQPFYFYKVIEVVIRSEEGLSRDMVKHLNSIEEQILESLAWTNNSALWEALHASANRVPSCEEVIFPNNFEIGNGGNVQGHLPMMPMSPIIHPRVKEVRTDSGSLRQDMQPLSPISVHERYSSPAAGSAKRRLFGDDPPKDTLMDKIMAEGTKLKIAPSSVTAESLSISPGQALLTMATTTVTGTTGRKVTVPLHGIANDAGEITLVPISMNPTQESTAESPVSLTAQSLIGTSPKQTHLTKAQDAHLTGVSKPKRTGSLALFYRKVYHLASVRLRDLCLKLDVSNELRRKIWTCFEFTLVHCPDLMKDRHLDQLLLCAFYIMAKVTKEERTFQEIMKSYRNQPQANSHVYRSVLLKSIPGGVVVYNGDCEMTDGDIEDATKTPNCSSEPVKEERGDLIKFYNTVYVGRVKSFALKYDLSNQDHIMDAPPLSPFPHIKQQPGSPRRISQQHSLYVSPHKNGAGLTPRSALLYKFNGSPSKSLKDINNMIRQGEQKTKKRVIAISGDADSPAKRLCQENDDVLLKRLQDVVSERANH
notes: p107, endogenous protein of mouse NIH3T3 cells, detected by Western blot; source: endogenous, NIH3T3 cell extract
B3: p27 (endogenous, NIH3T3) (natural protein, mouse (endogenous in NIH3T3), UniProt P46414 1-197, looked up)
chain: MSNVRVSNGSPSLERMDARQAEHPKPSACRNLFGPVNHEELTRDLEKHCRDMEEASQRKWNFDFQNHKPLEGRYEWQEVERGSLPEFYYRPPRPPKSACKVLAQESQDVSGSRQAVPLIGSQANSEDRHLVDQMPDSSDNPAGLAEQCPGMRKRPAAEDSSSQNKRANRTEENVSDGSPNAGTVEQTPKKPGLRRQT
notes: p27, endogenous protein of mouse NIH3T3 cells, detected by Western blot; source: endogenous, NIH3T3 cell extract
B4: p21 (endogenous, NIH3T3) (natural protein, mouse (endogenous in NIH3T3), UniProt P39689 1-159, looked up)
chain: MSNPGDVRPVPHRSKVCRCLFGPVDSEQLRRDCDALMAGCLQEARERWNFDFVTETPLEGNFVWERVRSLGLPKVYLSPGSRSRDDLGGDKRPSTSSALLQGPAPEDHVALSLSCTLVSERPEDSPGGPGTSQGRKRRQTSLTDFYHSKRRLVFCKRKP
notes: p21, endogenous protein of mouse NIH3T3 cells, detected by Western blot; source: endogenous, NIH3T3 cell extract

What follows are binders tested against T1, Cyclin A2 E285A, C-terminally fused to 3 Flag tags (mouse, UniProt P51943 1-422, E285A) (assay: co-IP; anti-Flag M2 affinity gel on extracts of NIH3T3 cells transfected with 3xFlag Cyclin A2 alleles; endogenous partners detected by Western blot; densitometry (ImageQuantTL) normalised to immunoprecipitated Cyclin A2, percent of WT; repeated 5 times). Details: partners not purified.
T1 construct: Cyclin A2, mouse; cDNA obtained from NIH3T3 cells by RT-PCR; source: NIH3T3 cells, transfected, in cell extracts; not shown: 3xFlag, C-terminal, kept
T1 sequence (P51943 whole entry E285A, the tested form may be a part): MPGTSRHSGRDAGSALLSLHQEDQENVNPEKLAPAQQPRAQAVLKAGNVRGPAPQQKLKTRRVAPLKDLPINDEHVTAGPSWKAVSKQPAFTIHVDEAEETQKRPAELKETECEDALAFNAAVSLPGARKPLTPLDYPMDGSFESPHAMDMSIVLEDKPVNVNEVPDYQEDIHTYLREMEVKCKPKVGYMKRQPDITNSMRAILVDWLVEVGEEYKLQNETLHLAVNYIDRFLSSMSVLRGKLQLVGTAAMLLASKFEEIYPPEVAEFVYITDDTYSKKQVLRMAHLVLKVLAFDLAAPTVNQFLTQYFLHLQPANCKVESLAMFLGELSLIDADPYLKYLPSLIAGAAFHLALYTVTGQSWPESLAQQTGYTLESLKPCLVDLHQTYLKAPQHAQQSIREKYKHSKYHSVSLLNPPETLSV

| percent co-precipitated relative to WT [%] | Binder |
| --- | --- |
| 4.7 | B1 |
| 8.6 | B2 |
| 36.7 | B3 |
| 78.2 | B4 |

These binders were tested against T2, Cyclin A2 L282R, C-terminally fused to 3 Flag tags (mouse, UniProt P51943 1-422, L282R) in the same assay as above. Details: partners not purified.
T2 construct: Cyclin A2, mouse; cDNA obtained from NIH3T3 cells by RT-PCR; source: NIH3T3 cells, transfected, in cell extracts; not shown: 3xFlag, C-terminal, kept
T2 sequence (P51943 whole entry L282R, the tested form may be a part): as the sequence (P51943 whole entry E285A, the tested form may be a part) above, with L282R, A285E counted along it

| percent co-precipitated relative to WT [%] | Binder |
| --- | --- |
| 19.8 | B1 |
| 58.6 | B2 |
| 44.5 | B3 |
| 65.7 | B4 |

The binders below were run against T3, Cyclin A2 K256A, C-terminally fused to 3 Flag tags (mouse, UniProt P51943 1-422, K256A) in the same assay as above. Details: partners not purified.
T3 construct: Cyclin A2, mouse; cDNA obtained from NIH3T3 cells by RT-PCR; source: NIH3T3 cells, transfected, in cell extracts; not shown: 3xFlag, C-terminal, kept
T3 sequence (P51943 whole entry K256A, the tested form may be a part): as the sequence (P51943 whole entry E285A, the tested form may be a part) above, with K256A, A285E counted along it

| percent co-precipitated relative to WT [%] | Binder |
| --- | --- |
| 3.8 | B1 |
| 17 | B2 |
| 19.3 | B3 |
| 41.9 | B4 |

The binders below were run against T4, Cyclin A2 E210Q, C-terminally fused to 3 Flag tags (mouse, UniProt P51943 1-422, E210Q) in the same assay as above. Details: partners not purified.
T4 construct: Cyclin A2, mouse; cDNA obtained from NIH3T3 cells by RT-PCR; source: NIH3T3 cells, transfected, in cell extracts; not shown: 3xFlag, C-terminal, kept
T4 sequence (P51943 whole entry E210Q, the tested form may be a part): as the sequence (P51943 whole entry E285A, the tested form may be a part) above, with E210Q, A285E counted along it

| percent co-precipitated relative to WT [%] | Binder |
| --- | --- |
| 45.3 | B1 |
| 70 | B2 |
| 95.7 | B3 |
| 60.2 | B4 |

What follows are binders tested against T5, Cyclin A2 E180A, C-terminally fused to 3 Flag tags (mouse, UniProt P51943 1-422, E180A) in the same assay as above. Details: partners not purified.
T5 construct: Cyclin A2, mouse; cDNA obtained from NIH3T3 cells by RT-PCR; source: NIH3T3 cells, transfected, in cell extracts; not shown: 3xFlag, C-terminal, kept
T5 sequence (P51943 whole entry E180A, the tested form may be a part): as the sequence (P51943 whole entry E285A, the tested form may be a part) above, with E180A, A285E counted along it

| percent co-precipitated relative to WT [%] | Binder |
| --- | --- |
| 19.6 | B2 |
| 11.7 | B4 |

The binders below were run against T6, Cyclin A2 L204A, C-terminally fused to 3 Flag tags (mouse, UniProt P51943 1-422, L204A) in the same assay as above. Details: partners not purified.
T6 construct: Cyclin A2, mouse; cDNA obtained from NIH3T3 cells by RT-PCR; source: NIH3T3 or HEK 293 cells, transfected, in cell extracts; not shown: 3xFlag, C-terminal, kept
T6 sequence (P51943 whole entry L204A, the tested form may be a part): as the sequence (P51943 whole entry E285A, the tested form may be a part) above, with L204A, A285E counted along it

| percent co-precipitated relative to WT [%] | Binder |
| --- | --- |
| 57.2 | B1 |
| 65.6 | B2 |
| 15.2 | B3 |
| 100 | B4 |

These binders were tested against T7, Cyclin A2 D171A, C-terminally fused to 3 Flag tags (mouse, UniProt P51943 1-422, D171A) in the same assay as above. Details: partners not purified.
T7 construct: Cyclin A2, mouse; cDNA obtained from NIH3T3 cells by RT-PCR; source: NIH3T3 or HEK 293 cells, transfected, in cell extracts; not shown: 3xFlag, C-terminal, kept
T7 sequence (P51943 whole entry D171A, the tested form may be a part): as the sequence (P51943 whole entry E285A, the tested form may be a part) above, with D171A, A285E counted along it

| percent co-precipitated relative to WT [%] | Binder |
| --- | --- |
| 100 | B1 |
| 100 | B2 |
| 100 | B3 |
| 100 | B4 |

The binders below were run against T8, Cyclin A2 Triple (M200A, L204A, W207A), C-terminally fused to 3 Flag tags (mouse, UniProt P51943 1-422, M200A | L204A | W207A) in the same assay as above. Details: partners not purified.
T8 construct: Cyclin A2, mouse; cDNA obtained from NIH3T3 cells by RT-PCR; also called Triple mutant; source: NIH3T3 or HEK 293 cells, transfected, in cell extracts; not shown: 3xFlag, C-terminal, kept
T8 sequence (P51943 whole entry M200A/L204A/W207A, the tested form may be a part): as the sequence (P51943 whole entry E285A, the tested form may be a part) above, with M200A, L204A, W207A, A285E counted along it

| percent co-precipitated relative to WT [%] | Binder |
| --- | --- |
| 0.4 | B1 |

Each binder was assayed against T9, Cyclin A2 M200A, C-terminally fused to 3 Flag tags (mouse, UniProt P51943 1-422, M200A) in the same assay as above. Details: partners not purified.
T9 construct: Cyclin A2, mouse; cDNA obtained from NIH3T3 cells by RT-PCR; source: NIH3T3 or HEK 293 cells, transfected, in cell extracts; not shown: 3xFlag, C-terminal, kept
T9 sequence (P51943 whole entry M200A, the tested form may be a part): as the sequence (P51943 whole entry E285A, the tested form may be a part) above, with M200A, A285E counted along it

| percent co-precipitated relative to WT [%] | Binder |
| --- | --- |
| 72.8 | B1 |
| 79.2 | B2 |
| 69.2 | B3 |
| 100 | B4 |

These binders were tested against T10, Cyclin A2 Double (W207L, E210Q), C-terminally fused to 3 Flag tags (mouse, UniProt P51943 1-422, W207L | E210Q) in the same assay as above. Details: partners not purified.
T10 construct: Cyclin A2, mouse; cDNA obtained from NIH3T3 cells by RT-PCR; also called Double mutant; source: NIH3T3 cells, transfected, in cell extracts; not shown: 3xFlag, C-terminal, kept
T10 sequence (P51943 whole entry W207L/E210Q, the tested form may be a part): as the sequence (P51943 whole entry E285A, the tested form may be a part) above, with W207L, E210Q, A285E counted along it

| percent co-precipitated relative to WT [%] | Binder |
| --- | --- |
| 9.2 | B1 |
| 8.2 | B4 |

What follows are binders tested against T11, Cyclin A2 W207A, C-terminally fused to 3 Flag tags (mouse, UniProt P51943 1-422, W207A) in the same assay as above. Details: partners not purified.
T11 construct: Cyclin A2, mouse; cDNA obtained from NIH3T3 cells by RT-PCR; source: NIH3T3 or HEK 293 cells, transfected, in cell extracts; not shown: 3xFlag, C-terminal, kept
T11 sequence (P51943 whole entry W207A, the tested form may be a part): as the sequence (P51943 whole entry E285A, the tested form may be a part) above, with W207A, A285E counted along it

| percent co-precipitated relative to WT [%] | Binder |
| --- | --- |
| 15.3 | B1 |
| 79.2 | B4 |

The binders below were run against T12, Cyclin A2 WT, C-terminally fused to 3 Flag tags (mouse, UniProt P51943 1-422) in the same assay as above. Details: partners not purified.
T12 construct: Cyclin A2, mouse; cDNA obtained from NIH3T3 cells by RT-PCR; Same construct transfected into mouse NIH3T3 (assay a1) and human HEK 293 (assay a2); also called WT Cyclin A2 allele; Flag tagged WT Cyclin A2; source: NIH3T3 or HEK 293 cells, transfected, in cell extracts; not shown: 3xFlag, C-terminal, kept
T12 sequence (P51943 whole entry, the tested form may be a part): as the sequence (P51943 whole entry E285A, the tested form may be a part) above, with A285E counted along it

| percent co-precipitated relative to WT [%] | Binder |
| --- | --- |
| 100 | B1 |
| 100 | B2 |
| 100 | B3 |
| 100 | B4 |
